In experiment [1] the target is human PD-L1 on CHO-K1 cells (human) (UniProt Q9NZQ7). In words: dual-target flow cytometry: sample pre-mixed with 3 µg/ml human TGF-β1, then CHO-K1 cells overexpressing human PD-L1, detection with PE anti-human TGF-β1 antibody (signal needs PD-L1 and TGF-β1 bound at once).
Experiment [2] concerns the target human TGF-β1 (human) (UniProt P01137). In words: ELISA, TGF-β1 coated at 0.5 µg/ml, HRP anti-human IgG detection, OD450.
The target of experiment [3] is human TGF-β3 (human) (UniProt P10600). In words: ELISA, TGF-β3 coated at 0.5 µg/ml, HRP anti-human IgG detection, OD450.
Experiment [4] deals with human PD-L1 on CHO-K1 cells (human) (UniProt Q9NZQ7). In words: flow cytometry on CHO-K1 cells overexpressing human PD-L1, PE anti-human IgG detection, median fluorescence intensity. (Flow cytometry measures light scatter and fluorescence of single cells or particles in a stream.)

pEC50: −log10 of the molar value.

We go through one substance from patent US20240026004A1.

Sequence of human PD-L1 on CHO-K1 cells (human) (Q9NZQ7 19-290): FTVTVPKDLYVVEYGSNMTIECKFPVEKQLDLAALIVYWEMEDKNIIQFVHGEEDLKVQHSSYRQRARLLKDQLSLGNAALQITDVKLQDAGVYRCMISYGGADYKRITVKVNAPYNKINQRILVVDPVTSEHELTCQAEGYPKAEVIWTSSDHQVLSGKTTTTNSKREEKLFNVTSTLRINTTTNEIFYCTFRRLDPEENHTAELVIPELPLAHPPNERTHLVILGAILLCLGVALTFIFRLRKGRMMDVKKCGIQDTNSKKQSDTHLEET
Sequence of human TGF-β1 (human) (P01137 279-390 limits assumed): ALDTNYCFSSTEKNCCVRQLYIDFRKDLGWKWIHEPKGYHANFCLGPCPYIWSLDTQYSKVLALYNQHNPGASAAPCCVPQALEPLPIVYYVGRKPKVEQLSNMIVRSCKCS
Sequence of human TGF-β3 (human) (P10600 301-412 limits assumed): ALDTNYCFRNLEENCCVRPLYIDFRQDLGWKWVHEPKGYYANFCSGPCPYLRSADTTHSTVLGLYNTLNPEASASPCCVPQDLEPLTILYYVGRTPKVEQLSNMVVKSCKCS

As a reminder, the pEC50 is the EC50 on a negative log10 scale, so that one unit is a factor of ten. Low values mean a high EC50, high ones a low EC50. Take “900544 (control drug M7824 from Merck, expressed in-house) (bispecific antibody)”: the pEC50 in experiment [1] was 9.10; in experiment [2], 9.22; in experiment [3], 8.95; in experiment [4], 8.84.
